In PMC6755086:
Values joined by “and” are separate entries in the source; they are usually repeats but may differ in a detail not shown here. Equal entries are not always repeated.

Target: Burkholderia pseudomallei Class 2 OLD protein, full-length (Bp^FL, residues 1-594) (Burkholderia pseudomallei)
Assay: SEC-MALS

Burkholderia pseudomallei Class 2 OLD protein, full-length (Bp^FL, residues 1-594) (enzyme)
stoichiometry N: 2 and 4
